Laboratory results as given in patent US20190134153A1, “IMMUNOMODULATORY EFFECT OF INHALED KINASE INHIBITOR PEPTIDES IN LUNG” (MOERAE MATRIX, INC., priority 2017, published 2019).

Key:
Experiment in all cases: Kinase Profiling Assay
Assay type in all cases: biochemical
Details in all cases: 100 μM
TAO1(h) = biological target: T1, TAO1(h) (Homo sapiens, UniProt Q7L7X3)
T1 sequence (Q7L7X3 1-1001): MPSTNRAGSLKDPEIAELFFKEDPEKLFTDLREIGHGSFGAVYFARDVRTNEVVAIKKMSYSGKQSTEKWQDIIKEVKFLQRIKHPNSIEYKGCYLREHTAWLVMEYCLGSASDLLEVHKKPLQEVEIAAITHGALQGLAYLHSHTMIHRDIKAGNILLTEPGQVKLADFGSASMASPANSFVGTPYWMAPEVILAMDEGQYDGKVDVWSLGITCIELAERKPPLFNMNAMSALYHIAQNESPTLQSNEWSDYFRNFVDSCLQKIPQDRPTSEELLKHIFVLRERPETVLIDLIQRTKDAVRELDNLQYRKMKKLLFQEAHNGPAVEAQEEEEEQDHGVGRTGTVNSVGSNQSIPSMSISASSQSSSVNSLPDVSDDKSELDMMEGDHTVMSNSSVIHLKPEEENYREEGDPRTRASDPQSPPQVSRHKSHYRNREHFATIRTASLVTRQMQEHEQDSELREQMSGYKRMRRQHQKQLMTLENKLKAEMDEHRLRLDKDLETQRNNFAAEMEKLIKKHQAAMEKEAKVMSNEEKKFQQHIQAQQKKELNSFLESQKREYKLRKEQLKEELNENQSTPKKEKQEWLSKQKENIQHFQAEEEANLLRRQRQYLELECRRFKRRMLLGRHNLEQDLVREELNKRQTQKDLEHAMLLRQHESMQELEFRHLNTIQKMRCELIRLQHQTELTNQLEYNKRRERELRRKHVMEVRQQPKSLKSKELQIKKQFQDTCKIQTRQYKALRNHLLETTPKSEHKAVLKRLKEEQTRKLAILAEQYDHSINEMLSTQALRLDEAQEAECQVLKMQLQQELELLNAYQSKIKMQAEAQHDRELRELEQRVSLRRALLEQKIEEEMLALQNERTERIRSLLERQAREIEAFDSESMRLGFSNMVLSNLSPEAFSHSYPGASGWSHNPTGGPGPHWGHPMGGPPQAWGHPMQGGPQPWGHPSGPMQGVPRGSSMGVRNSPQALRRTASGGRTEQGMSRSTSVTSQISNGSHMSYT

TrkB(h) = TrkB(h) (Homo sapiens, UniProt Q16620)
CHK2(h) = CHK2(h) (Homo sapiens, UniProt O96017)
STK33(h) = STK33(h) (Homo sapiens, UniProt Q9BYT3)
PKD2(h) = biological target: T2, PKD2(h) (Homo sapiens, UniProt Q9BZL6)
T2 sequence (Q9BZL6 1-878): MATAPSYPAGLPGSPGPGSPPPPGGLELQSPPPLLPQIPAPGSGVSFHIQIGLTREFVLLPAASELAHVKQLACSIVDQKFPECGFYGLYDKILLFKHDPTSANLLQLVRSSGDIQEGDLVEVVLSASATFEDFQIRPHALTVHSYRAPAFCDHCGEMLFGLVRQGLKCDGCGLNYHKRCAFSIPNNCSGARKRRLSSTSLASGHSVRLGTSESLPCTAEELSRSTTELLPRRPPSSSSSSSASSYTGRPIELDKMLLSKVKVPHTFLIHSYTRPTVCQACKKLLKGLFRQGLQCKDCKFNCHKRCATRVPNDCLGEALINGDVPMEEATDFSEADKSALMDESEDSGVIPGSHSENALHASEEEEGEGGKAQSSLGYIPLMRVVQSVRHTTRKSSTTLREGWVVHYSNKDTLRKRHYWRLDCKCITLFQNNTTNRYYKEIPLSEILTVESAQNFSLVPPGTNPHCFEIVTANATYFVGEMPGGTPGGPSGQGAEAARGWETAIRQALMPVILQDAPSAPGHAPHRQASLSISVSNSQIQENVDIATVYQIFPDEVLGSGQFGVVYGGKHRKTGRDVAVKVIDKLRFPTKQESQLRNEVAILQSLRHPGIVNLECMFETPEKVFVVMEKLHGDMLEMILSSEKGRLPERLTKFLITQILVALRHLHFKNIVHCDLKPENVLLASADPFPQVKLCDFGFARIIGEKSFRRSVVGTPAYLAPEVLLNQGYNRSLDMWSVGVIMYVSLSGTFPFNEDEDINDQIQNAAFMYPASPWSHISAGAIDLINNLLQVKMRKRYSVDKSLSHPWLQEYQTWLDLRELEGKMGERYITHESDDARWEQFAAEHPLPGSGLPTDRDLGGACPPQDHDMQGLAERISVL

CLK3(h) = CLK3(h) (Homo sapiens, UniProt P49761)
CaMKIIγ(h) = CaMKIIγ(h) (Homo sapiens, UniProt Q13555)
Sequence of CaMKIIγ(h) (Q13555 whole entry): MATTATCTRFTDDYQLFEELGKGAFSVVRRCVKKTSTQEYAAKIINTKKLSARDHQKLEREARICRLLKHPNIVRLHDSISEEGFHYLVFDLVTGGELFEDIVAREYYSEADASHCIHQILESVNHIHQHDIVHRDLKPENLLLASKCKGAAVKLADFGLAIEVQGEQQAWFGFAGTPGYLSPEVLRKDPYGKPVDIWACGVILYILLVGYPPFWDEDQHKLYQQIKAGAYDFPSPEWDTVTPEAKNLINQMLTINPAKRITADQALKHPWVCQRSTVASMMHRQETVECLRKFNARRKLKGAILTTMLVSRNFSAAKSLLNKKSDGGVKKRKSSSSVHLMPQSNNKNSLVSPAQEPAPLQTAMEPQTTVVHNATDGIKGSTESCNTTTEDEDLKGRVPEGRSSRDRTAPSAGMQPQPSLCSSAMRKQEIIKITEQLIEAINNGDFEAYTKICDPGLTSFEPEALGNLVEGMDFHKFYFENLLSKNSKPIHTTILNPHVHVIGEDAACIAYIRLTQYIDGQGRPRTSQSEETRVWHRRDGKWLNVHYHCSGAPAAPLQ

Sequence of CLK3(h) (P49761 whole entry): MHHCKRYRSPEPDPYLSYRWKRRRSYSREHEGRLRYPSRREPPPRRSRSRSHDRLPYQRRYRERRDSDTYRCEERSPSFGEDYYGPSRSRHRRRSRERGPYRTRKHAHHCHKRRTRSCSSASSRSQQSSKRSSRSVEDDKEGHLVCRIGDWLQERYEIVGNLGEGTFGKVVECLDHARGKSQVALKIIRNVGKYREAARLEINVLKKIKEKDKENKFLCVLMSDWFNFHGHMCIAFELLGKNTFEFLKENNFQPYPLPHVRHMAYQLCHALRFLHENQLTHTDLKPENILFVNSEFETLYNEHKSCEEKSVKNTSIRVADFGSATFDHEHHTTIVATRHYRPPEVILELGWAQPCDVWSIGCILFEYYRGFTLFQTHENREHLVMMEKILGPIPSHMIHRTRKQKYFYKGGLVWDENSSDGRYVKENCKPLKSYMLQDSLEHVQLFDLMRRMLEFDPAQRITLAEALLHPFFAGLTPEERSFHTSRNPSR
Sequence of CHK2(h) (O96017 whole entry): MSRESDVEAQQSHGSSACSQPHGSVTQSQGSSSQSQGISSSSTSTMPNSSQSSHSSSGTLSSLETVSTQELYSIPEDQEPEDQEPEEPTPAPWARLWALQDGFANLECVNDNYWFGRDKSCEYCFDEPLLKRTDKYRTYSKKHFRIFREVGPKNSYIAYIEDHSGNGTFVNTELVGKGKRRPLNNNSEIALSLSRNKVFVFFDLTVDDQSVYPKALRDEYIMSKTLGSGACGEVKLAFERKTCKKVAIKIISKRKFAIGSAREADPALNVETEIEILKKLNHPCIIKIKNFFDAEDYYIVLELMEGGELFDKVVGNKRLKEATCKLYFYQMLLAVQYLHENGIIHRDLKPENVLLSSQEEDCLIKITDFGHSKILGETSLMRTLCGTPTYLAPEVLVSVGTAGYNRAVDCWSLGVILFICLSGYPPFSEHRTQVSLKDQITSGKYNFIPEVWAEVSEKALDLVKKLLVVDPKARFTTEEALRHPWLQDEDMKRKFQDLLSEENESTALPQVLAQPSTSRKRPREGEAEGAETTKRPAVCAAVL
Sequence of STK33(h) (Q9BYT3 whole entry): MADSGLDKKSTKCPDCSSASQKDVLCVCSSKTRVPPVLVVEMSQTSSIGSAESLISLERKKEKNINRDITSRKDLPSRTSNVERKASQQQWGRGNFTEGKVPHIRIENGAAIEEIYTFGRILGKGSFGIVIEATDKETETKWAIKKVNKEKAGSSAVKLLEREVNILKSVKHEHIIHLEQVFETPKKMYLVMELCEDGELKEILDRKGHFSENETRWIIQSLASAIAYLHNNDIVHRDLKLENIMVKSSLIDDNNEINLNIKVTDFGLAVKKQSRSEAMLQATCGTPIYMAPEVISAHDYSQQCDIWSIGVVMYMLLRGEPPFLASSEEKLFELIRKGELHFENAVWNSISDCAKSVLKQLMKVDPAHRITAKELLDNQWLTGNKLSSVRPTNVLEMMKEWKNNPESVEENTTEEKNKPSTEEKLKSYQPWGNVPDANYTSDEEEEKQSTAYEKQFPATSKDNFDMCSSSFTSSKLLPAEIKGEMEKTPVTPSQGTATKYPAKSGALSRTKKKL

| Sequence | % activity (TAO1(h)) | % activity (TrkB(h)) | % activity (CHK2(h)) | % activity (STK33(h)) | % activity (PKD2(h)) | % activity (CLK3(h)) | % activity (CaMKIIγ(h)) |
| --- | --- | --- | --- | --- | --- | --- | --- |
| FAKLAARLYRKALARQLGVAA [MMI-0300] | 82% | 5% | 66% | 45% | 33% | 61% | 5% |
| HRRIKAWLKKIKALARQLGVAA [MMI-0500] | 24% | 12% | 13% | 16% | 10% | 76% | 3% |
| KAFAKLAARLYRKALARQLGVAA [MMI-0400] | 73% | 8% | 54% | 52% | 25% | 84% | 3% |
| YARAAARQARAKALNRQLGVA [MMI-0200] |  | 7% |  | 98% | 78% | 76% | 94% |
